Results taken from patent publication US20170342151A1.

Key:
[1] = target: human chondroitin sulfate proteoglycan 4 (CSPG4) on cells (human) (UniProt Q6UVK1); experiment: FACS on M14 cells, negative control antibody, amount not given, PE goat anti-human secondary; the same row stands in all three tables of the figure
CD3 on T cells [2] = target: CD3 on T cells (UniProt P07766); experiment: FACS on T cells, negative control antibody, amount not given, PE goat anti-human secondary; the same row stands in all three tables of the figure
[3] = target: CD3 antigen (surface plasmon resonance); experiment: SPR, Biacore, two state reaction model
CD3 on T cells [4] = target: CD3 on T cells (UniProt P07766); experiment: FACS on T cells, 0.01 ug antibody, PE goat anti-human secondary; panel labelled CONTROL
CD3 on T cells [5] = target: CD3 on T cells (UniProt P07766); experiment: FACS on T cells, 0.1 ug antibody, PE goat anti-human secondary; panel labelled CONTROL
CD3 on T cells [6] = target: CD3 on T cells (UniProt P07766); experiment: FACS on T cells, 1 ug antibody, PE goat anti-human secondary; panel labelled CONTROL

CD3 on T cells, sequence (P07766 23-207, chain 1 of 3): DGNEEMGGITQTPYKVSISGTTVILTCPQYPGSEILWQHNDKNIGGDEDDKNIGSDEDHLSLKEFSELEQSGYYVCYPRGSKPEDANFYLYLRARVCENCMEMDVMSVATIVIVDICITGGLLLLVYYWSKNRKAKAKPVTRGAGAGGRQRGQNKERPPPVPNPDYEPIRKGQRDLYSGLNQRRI
CD3 on T cells, sequence (P09693 23-182, chain 2 of 3, further chain): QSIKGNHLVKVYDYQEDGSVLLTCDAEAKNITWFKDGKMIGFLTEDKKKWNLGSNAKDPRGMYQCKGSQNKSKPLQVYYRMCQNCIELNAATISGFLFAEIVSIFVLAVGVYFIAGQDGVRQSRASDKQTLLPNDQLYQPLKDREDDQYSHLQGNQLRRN
CD3 on T cells, sequence (P04234 22-171, chain 3 of 3, further chain): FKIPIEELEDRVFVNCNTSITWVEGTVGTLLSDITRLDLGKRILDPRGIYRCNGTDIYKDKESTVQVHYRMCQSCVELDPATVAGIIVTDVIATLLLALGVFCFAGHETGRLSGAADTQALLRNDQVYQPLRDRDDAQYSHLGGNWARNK
human chondroitin sulfate proteoglycan 4 (CSPG4) on cells (human), sequence (Q6UVK1 30-2322 limits assumed): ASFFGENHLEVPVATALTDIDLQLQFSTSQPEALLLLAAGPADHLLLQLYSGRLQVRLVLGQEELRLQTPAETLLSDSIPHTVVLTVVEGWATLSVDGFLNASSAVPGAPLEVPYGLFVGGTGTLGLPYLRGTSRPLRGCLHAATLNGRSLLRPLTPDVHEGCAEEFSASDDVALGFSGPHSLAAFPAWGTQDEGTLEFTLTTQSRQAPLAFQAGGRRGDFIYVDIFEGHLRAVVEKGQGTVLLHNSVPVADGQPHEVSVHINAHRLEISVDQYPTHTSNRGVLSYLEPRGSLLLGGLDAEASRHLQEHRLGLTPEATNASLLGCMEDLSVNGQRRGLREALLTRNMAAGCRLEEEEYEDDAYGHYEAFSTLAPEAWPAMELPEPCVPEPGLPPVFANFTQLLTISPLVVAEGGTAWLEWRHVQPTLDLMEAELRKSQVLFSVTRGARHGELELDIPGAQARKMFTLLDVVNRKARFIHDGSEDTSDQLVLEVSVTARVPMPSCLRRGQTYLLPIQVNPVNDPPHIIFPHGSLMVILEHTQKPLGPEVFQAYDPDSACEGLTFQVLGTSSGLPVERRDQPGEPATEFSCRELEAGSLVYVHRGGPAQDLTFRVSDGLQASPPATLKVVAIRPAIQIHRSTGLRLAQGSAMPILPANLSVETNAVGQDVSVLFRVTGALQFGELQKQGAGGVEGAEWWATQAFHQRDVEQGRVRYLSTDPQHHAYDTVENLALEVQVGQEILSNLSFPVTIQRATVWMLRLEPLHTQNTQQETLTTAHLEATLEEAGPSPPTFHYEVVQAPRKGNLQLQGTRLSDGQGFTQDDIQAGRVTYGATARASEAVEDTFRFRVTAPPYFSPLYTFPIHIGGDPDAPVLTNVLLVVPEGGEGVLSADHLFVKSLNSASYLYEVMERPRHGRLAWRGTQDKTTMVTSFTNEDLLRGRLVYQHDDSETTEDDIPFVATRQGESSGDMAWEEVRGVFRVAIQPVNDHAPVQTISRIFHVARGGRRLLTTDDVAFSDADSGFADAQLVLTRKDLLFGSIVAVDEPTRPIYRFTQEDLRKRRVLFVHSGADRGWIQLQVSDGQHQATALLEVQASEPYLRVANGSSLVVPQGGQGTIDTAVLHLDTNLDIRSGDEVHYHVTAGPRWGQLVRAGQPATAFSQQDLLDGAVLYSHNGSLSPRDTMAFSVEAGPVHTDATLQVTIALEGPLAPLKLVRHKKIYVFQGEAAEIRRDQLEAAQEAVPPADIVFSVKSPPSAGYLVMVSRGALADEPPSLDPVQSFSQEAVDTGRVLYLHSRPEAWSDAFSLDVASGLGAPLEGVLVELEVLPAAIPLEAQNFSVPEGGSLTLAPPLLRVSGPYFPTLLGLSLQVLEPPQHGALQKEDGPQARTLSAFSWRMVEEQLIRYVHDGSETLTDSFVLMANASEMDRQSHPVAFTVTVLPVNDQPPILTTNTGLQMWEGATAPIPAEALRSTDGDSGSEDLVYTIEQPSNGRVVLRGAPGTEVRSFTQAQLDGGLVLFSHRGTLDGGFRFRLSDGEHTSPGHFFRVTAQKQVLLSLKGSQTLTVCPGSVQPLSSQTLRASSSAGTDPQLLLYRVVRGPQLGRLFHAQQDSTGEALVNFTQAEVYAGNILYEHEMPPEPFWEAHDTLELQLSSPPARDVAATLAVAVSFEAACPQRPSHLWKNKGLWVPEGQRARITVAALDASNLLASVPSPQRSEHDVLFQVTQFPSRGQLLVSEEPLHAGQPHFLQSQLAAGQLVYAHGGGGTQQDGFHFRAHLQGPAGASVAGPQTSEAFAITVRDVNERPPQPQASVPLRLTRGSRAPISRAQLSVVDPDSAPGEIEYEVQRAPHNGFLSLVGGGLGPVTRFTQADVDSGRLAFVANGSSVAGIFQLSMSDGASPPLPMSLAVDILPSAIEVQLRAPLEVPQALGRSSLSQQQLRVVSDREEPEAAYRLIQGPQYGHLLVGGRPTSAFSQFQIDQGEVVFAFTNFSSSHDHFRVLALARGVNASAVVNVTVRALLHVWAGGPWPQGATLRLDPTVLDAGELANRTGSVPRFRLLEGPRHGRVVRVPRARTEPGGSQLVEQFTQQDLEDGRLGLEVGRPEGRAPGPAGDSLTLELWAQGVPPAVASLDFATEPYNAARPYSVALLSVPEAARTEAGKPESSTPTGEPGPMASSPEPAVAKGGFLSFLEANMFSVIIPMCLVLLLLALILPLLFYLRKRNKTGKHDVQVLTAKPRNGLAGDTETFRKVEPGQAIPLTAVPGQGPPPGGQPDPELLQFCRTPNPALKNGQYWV

Row | Substance | GEOMETRIC MEAN : FL2-H [1] | GEOMETRIC MEAN : FL2-H (CD3 on T cells [2]) | Kd [3] | koff [3] | kon [3] | GEOMETRIC MEAN : FL2-H (CD3 on T cells [4]) | GEOMETRIC MEAN : FL2-H (CD3 on T cells [5]) | GEOMETRIC MEAN : FL2-H (CD3 on T cells [6])
1 | control human IgG1 antibody (non-specific for CSPG4 or T cells) | 5.15 | 5.1 | – | – | – | – | – | –
2 | humanized OKT3 IgG1-aGlyco (antibody) | – | – | 61.7 nM | 0.105 s⁻¹ | 1.71e+06 M⁻¹ s⁻¹ | 66.1 | 645 | 2010
